Results as given in patent US20210238305A1 (REMEGEN, published 2021).

Biological target: T1, human epidermal growth factor receptor 2 (Her2) (human, UniProt P04626 23-1255)
T1 construct: whole, on cells; Endogenous Her2 in fixed patient tissue; also called ErbB2
Test: IHC grade, no antigen retrieval, breast carcinoma sample 5 (18-07814-1)

binding result: binds
B1: RC48M antibody (antibody, mouse IgG1, kappa, V domains shown)
VH: EVQLVQSGAEVKKPGATVKISCKVSGYTFTDYYIHWVQQAPGKGLEWMGRVNPDHGDSYYNQKFKDKATITADKSTDTAYMELSSLRSEDTAVYFCARNYLFDHWGQGTLVTVSS
VL: DIQMTQSPSSVSASVGDRVTITCKASQDVGTAVAWYQQKPGKAPKLLIYWASIRHTGVPSRFSGSGSGTDFTLTISSLQPEDFATYYCHQFATYTFGGGTKVEIKR
notes: also called R48M
